Measurements published in patent US20080261863A1, “Pegylation of Vasoactive Intestinal Peptide (Vip) / Pituitary Adenylate Cyclase Activating Peptide (Pacap) Receptor 2 (Vpac2) Agonists and Methods of Use” (priority 2004, published 2008).

Target: VPAC2 receptor (human) (UniProt P41587)
Assay: cell-based or functional assay

VPAC2 receptor (human), sequence (P41587 24-438): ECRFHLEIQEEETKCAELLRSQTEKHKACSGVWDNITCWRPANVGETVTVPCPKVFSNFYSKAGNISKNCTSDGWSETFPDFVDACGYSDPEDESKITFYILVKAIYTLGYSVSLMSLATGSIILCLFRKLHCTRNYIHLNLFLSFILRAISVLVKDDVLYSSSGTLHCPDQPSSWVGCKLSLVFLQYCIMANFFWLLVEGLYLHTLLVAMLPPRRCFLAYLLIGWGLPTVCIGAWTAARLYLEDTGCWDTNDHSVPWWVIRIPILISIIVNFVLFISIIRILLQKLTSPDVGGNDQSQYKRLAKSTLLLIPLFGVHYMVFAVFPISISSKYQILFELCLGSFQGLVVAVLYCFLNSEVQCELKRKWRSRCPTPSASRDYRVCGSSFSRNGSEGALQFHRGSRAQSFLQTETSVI

- EC50 (nM), cAMP SPA, VPAC2 agonist activity: 0.09 nM
Substance: PACAP-27 (from UniProt P18509 132-158) (peptide)
